The record followed here is patent US20240141038A1 (SHANGHAI QILU PHARMACEUTICAL RESEARCH AND DEVELOPMENT CENTRE, published 2024).

B1: H4-PA31 humanized antibody (antibody, human IgG1, V domains shown)
VH: EVQLVESGGGLVQPGGSLRLSCAVSGRTFSRLPMGWFRQAPGKDREFVAAISWSSSTTYYADSVKGRFTISRDNSKNTAYLQMNSLRAEDTAVYYCAAVGGSLDYSATVVYTAARAYADWGQGTLVTVSS
notes: not shown: constant region of human IgG1
B2: H4-PA45 humanized antibody (antibody, V domains shown)
VH: EVQLVESGGGLVQPGGSLRLSCAASGRTFSRLPMAWFRQAPGKDREFVAAISWSGGSTYYADSMKGRFTISRDNSKNTAYLQMNSLRAEDTAVYYCAAVGDSAPYSATIVYTDARAYAYWGQGTLVTVSS
notes: as for B1
B3: H3-PA45 humanized antibody (antibody, V domains shown)
VH: B2 VH with D44G
notes: as for B1
B4: H1-PA45 humanized antibody (antibody, human IgG1, V domains shown)
VH: B2 VH with F37V, D44G, R45L, F47W, A49S, A79L
notes: also called hPA45; not shown: constant region of human IgG1
B5: H3-PA31 humanized antibody (antibody, human IgG1, V domains shown)
VH: B1 VH with D44G
notes: as for B1
B6: H2-PC11 humanized antibody (antibody, human IgG1, V domains shown)
VH: EVQLVESGGGLVQPGGSLRLSCAPSPYSANSFSMAWFRQAPGKGLEGIACIQAESGSTNVAPSVKGRFTISQDNSKNTLYLQMNSLRAEDTAVYYCAAFKRNVGGCELRPEHWRFWGQGTLVTVSS
notes: as for B1
B7: H3-PC11 humanized antibody (antibody, human IgG1, V domains shown)
VH: B6 VH with P24A, L45R, I48V
notes: as for B1
B8: H5-PC11 humanized antibody (antibody, human IgG1, V domains shown)
VH: B6 VH with G44E, L45R
notes: as for B1
B9: H1-PA27 humanized antibody (antibody, human IgG1, V domains shown)
VH: QVQLVESGGGVVQPGRSLRLSCAASGRTESWYRMGWVRQAPGKGLEWVARISGDTNIKYYAGSVKGRFTISRDNSKNTLYLQMSSLRAEDTAVYYCAADRTGATWDYWGQGTLVTVSS
notes: also called hPA27; not shown: constant region of human IgG1
B10: H4-PA27 humanized antibody (antibody, human IgG1, V domains shown)
VH: B9 VH with Q1D, V37F, L45R, W47V
notes: as for B1
B11: H3-PA27 humanized antibody (antibody, human IgG1, V domains shown)
VH: B9 VH with V37F, L45R, W47V
notes: as for B1

Residue numbers refer to the chain shown, from its start. A value given as a limit tells only on which side of the number the result lay.

In the first test the target is T1, human NKp46 (full length, on cells) (human, UniProt O76036 22-304).
T1 construct: also called human NKp46-CHOK1
T1 sequence (O76036 22-304 Q82K): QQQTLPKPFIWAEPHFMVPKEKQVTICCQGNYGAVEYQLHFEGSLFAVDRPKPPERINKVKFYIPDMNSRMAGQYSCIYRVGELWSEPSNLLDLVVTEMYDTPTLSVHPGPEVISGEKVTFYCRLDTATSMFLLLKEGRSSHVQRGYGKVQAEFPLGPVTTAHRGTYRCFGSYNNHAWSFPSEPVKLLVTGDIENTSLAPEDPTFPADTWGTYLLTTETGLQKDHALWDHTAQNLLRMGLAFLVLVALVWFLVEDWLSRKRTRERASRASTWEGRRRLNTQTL
In words: flow cytometry on human NKp46-CHOK1 cells. On the procedure:
(§1) The stable human NKp46-CHOK1 and cynomolgus monkey NKp46-CHOK1 cell lines obtained in Example 2 were cultured, the cells were digested with 0.25% pancreatic enzyme EDTA for about 5 minutes, and the digestion was terminated with the complete medium. After centrifugation at 1,500 rpm for 5 minutes, the supernatant was discarded, the precipitated cells were resuspended with PBS containing 1% BSA and counted. The cell density was adjusted to 1E6/mL and seeded in a corning-3799 96-well culture plate at 100 μL/well. Aftering centrifuging at 1,500 rpm for 5 minutes, the supernatant was discarded and the precipitate was set aside at 4° C. The antibody solutions were prepared with PBS containing 1% BSA, wherein the antibody solution has an initial concentration was 100 nM, then diluted in 10-fold to obtain 7 gradients: 10⁻⁴ nM, 10⁻³ nM, 10⁻² nM, 10⁻¹ nM, […], and 10² nM. The prepared antibody solutions were used to resuspend the cells, 100 μL/well. The resuspended cell culture plates were incubated in a 4° C. freezer for 1 h. After centrifugation at 1500 rpm for 5 minutes, the supernatant was discarded. The precipitate was washed with 160 μL of PBS containing 1% BSA, the supernatant was discarded, and the cells were stored for later use.
(§2) The Secondary antibody (goat anti human IgG Fc PE) solution was prepared with PBS containing 1% BSA, and diluted 1:200. The cells were resuspended with the prepared secondary antibody solution, 100 μL/well, incubated in a 4° C. freezer for 0.5 h. After centrifugation at 1,500 rpm for 5 minutes, the supernatant was discarded, the precipitated cells were washed with 160 μL of PBS containing 1% BSA, the supernatant was discarded, the cells were resuspended with 100 μL of PBS containing 1% BSA, and filtered in 300-mesh gauze. The mean fluorescence intensity of antibody binding to cells was then analyzed on a flow cytometer. The FCS file was exported from the flow cytometer, the mean fluorescence intensity (hereinafter referred to as MFI) of PE channel was analyzed with Flowjo software, and the mean fluorescence intensity obtained was introduced into the Graphpad to analyze the half binding concentration (hereinafter referred to as EC₅₀) and the top mean fluorescence intensity (Top MFI) of the antibody and the cell.
For the molecule B1, the EC50 amounted to 0.162 nM and the “Top MFI” value stood at 5950.
Turning to B2, it took 0.205 nM to reach a half-maximal effect (EC50) and the “Top MFI” value was 5760.
With B3, the EC50 turned out to be 0.188 nM and the “Top MFI” value is 5720.
For the molecule B4, the EC50 came to 0.543 nM and the “Top MFI” value is 5090.
For B5 the same measures were 0.148 nM and 5980.
For B6 the same measures were 0.363 nM and 6940.
The like results for B7 were, in that order, 0.328 nM and 6830.
For B8, the EC50 was found to be 0.302 nM and the “Top MFI” value was 7370.
The like results for B9 were, in that order, 0.253 nM and 6000.
For B10 the same measures were 0.145 nM and 6650.
As for B11, a half-maximal effect (EC50) was put at 0.153 nM and the “Top MFI” value was 6820.

The next test deals with T2, Human NKp46 antigen for immunization, screening, and testing (Kactus, NKP-HM146) (human, UniProt O76036 22-255).
T2 construct: Bought protein; also called human NKp46 antigen protein; human NKp46 protein
T2 sequence (O76036 other isoform, or with tags, fused parts or gaps limits assumed): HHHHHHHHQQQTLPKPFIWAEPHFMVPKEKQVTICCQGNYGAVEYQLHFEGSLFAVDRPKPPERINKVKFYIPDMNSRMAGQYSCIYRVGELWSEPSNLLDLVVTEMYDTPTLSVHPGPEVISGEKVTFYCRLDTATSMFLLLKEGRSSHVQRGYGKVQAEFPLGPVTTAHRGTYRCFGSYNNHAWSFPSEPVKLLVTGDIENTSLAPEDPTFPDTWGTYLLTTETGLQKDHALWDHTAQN
In words: SPR (Biacore 8K), antibody captured on anti-human Fc, NKp46 as analyte, 1:1 fit. Here is the method: Human NKp46 was diluted in two-fold to a serial concentration (400 nM-3.125 nM), then combined for 90 s at a flow rate of 50 μL/min, and dissociated for 500 s.
At the end of each round of experiments, 3 M MgCl₂ solution was used to rinse at a flow rate of 30 μL/min for 30 s, and the captured antibody was removed along with the antigen to complete the regeneration of the chip. The raw data were analyzed using Biacore Insight Evaluation Software (version 3.0.12.15655) software and (1:1) Langmuir model was fit to the data. Compared with the anti-NKp46 humanized antibody and the corresponding chimeric antibody, the affinity to the human NKp46 antigen protein is mostly maintained.
With B1, the Kd was 5.89 nM, the koff is 0.00103 s⁻¹ and the kon was 175000 M⁻¹ s⁻¹.
For B2 the same measures were 21.9 nM, 0.00204 s⁻¹ and 93000 M⁻¹ s⁻¹.
The like results for B6 were, in that order, 2.05 nM, 0.000126 s⁻¹ and 61300 M⁻¹ s⁻¹.
Turning to B7, the affinity, expressed as Kd, was 1.14 nM; the koff is 7.75e-05 s⁻¹; the kon was determined as 67800 M⁻¹ s⁻¹.
For the molecule B10, the Kd was 23.7 nM, the koff is 0.00266 s⁻¹ and the kon stood at 112000 M⁻¹ s⁻¹.

The next test deals with T3, cynomolgus monkey NKp46 (full length, on cells) (cynomolgus monkey, UniProt Q95JB9 22-306).
T3 construct: also called cynomolgus monkey NKp46-CHOK1; cynomolgus NKp46-CHOK1
T3 sequence (Q95JB9 22-306): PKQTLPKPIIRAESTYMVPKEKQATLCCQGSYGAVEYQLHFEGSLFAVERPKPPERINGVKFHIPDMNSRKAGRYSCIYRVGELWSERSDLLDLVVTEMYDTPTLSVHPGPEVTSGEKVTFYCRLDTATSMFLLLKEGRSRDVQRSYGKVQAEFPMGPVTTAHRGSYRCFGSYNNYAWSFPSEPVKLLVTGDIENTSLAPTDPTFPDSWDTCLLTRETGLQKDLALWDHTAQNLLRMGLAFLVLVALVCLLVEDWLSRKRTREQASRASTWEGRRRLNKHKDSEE
The experiment in a line: flow cytometry on cynomolgus monkey NKp46-CHOK1 cells. Here is the method:
as §1, §2
Regarding B1, a half-maximal response (EC50) required 1.3 nM and the “Top MFI” value is 3340.
With B2, a half-maximal response (EC50) required 1.53 nM and the “Top MFI” value worked out at 3400.
Regarding B3, the EC50 came out at 1.52 nM and the “Top MFI” value was 3330.
For B4 the same measures were 11.1 nM and 3120.
For the molecule B5, a half-maximal effect (EC50) was put at 1.16 nM and the “Top MFI” value turned out to be 3210.
On to B6, for which the EC50 is 0.301 nM and the “Top MFI” value was determined as 3540.
Consider B7, for which the EC50 amounted to 0.297 nM and the “Top MFI” value turned out to be 3280.
On to B8, for which a half-maximal effect (EC50) was put at 0.27 nM and the “Top MFI” value was found to be 3660.
For B9 the same measures were 0.338 nM and 2540.
The like results for B10 were, in that order, 0.074 nM and 3880.
The like results for B11 were, in that order, 0.072 nM and 4060.

In a further test the target is T1, human NKp46 (full length, on cells). In words: cell-based or functional assay.
In the case of B1, the “EC50 of NK cell activation (CD107a-positive NK cells, plate-coated antibody)” value (shortened to “EC50 of NK cell activation”) was 0.38 nM and the “Top mean fluorescence intensity (Top MFI), NK cell activation (CD107a)” value (“Top mean fluorescence intensity” for short) was 34.1.
For B2 the same measures were 0.4 nM and 37.6.
For B3 the same measures were 0.58 nM and 34.
The like results for B4 were, in that order, 7.39 nM and 30.8.
In the case of B5, the “EC50 of NK cell activation” value came to 0.75 nM and the “Top mean fluorescence intensity” value came out at 31.6.
For B6 the same measures were 0.87 nM and 18.8.
B7: the “EC50 of NK cell activation” value worked out at 1.21 nM and the “Top mean fluorescence intensity” value is 19.6.
For B8 the same measures were 0.95 nM and 23.6.
As for B9, the “EC50 of NK cell activation” value is more than 20 nM and the “Top mean fluorescence intensity” value amounted to 6.3.
For B10 the same measures were 10.7 nM and 18.1.
For B11 the same measures were 7.39 nM and 14.4.
